For 1 substance, suppression of CD4+CD25- T cells proliferation (MLR, CFSE) results are on record in US20190060405A1.

For this assay, the target named is rat CSF1-R (CD115) expressed on pDCs (rat) (UniProt Q00495). Description: cell-based or functional assay.
UniProt Q00495, sequence (Q00495 20-978): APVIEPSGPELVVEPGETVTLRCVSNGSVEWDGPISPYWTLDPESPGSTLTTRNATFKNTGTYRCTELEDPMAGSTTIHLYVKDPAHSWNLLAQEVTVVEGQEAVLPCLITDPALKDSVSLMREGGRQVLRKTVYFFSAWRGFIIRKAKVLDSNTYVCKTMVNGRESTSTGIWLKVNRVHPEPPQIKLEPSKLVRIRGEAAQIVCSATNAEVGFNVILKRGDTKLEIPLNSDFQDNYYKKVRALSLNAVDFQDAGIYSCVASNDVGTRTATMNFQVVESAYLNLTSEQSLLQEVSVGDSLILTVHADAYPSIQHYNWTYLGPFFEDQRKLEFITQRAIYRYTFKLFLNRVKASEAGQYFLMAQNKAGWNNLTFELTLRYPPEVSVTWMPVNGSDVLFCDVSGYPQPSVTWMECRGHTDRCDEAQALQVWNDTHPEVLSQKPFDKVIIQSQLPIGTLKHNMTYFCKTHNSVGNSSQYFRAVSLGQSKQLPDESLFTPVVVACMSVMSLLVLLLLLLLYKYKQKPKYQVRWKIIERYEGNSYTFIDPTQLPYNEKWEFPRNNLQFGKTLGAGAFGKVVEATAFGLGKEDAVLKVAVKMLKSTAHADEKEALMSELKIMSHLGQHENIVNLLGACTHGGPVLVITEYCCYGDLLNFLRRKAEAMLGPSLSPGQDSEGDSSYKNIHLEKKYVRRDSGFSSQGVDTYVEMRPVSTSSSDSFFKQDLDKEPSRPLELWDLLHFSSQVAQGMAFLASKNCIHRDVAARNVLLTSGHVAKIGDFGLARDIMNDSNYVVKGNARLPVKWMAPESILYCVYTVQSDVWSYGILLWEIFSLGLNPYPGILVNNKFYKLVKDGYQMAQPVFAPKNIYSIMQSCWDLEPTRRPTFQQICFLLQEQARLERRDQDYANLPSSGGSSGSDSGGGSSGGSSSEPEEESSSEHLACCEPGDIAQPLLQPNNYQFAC

On to “Rat M-CSF protein (ab56288, ABCAM) (from UniProt Q8JZQ0 33-187) (ligand)”, for which the suppression of CD4+CD25- T cells proliferation (MLR, CFSE) came to 93.5%.
